Assay results taken from patent US20190271021A1.
Read-outs that look alike come from different tables or passages of the source.

Key:
[1] = target: human TrkB on CHO cells (CHO-K1-hTrkB/pSRE-Luc) (human) (UniProt Q16620); assay: cell-based or functional assay
[2] = target: human TrkB on CHO cells (CHO-K1-hTrkB/pSRE-Luc) (human) (UniProt Q16620); assay: cell-based or functional assay; remark: listed apart in the source

Sequence of human TrkB on CHO cells (CHO-K1-hTrkB/pSRE-Luc) (human) (Q16620 32-822): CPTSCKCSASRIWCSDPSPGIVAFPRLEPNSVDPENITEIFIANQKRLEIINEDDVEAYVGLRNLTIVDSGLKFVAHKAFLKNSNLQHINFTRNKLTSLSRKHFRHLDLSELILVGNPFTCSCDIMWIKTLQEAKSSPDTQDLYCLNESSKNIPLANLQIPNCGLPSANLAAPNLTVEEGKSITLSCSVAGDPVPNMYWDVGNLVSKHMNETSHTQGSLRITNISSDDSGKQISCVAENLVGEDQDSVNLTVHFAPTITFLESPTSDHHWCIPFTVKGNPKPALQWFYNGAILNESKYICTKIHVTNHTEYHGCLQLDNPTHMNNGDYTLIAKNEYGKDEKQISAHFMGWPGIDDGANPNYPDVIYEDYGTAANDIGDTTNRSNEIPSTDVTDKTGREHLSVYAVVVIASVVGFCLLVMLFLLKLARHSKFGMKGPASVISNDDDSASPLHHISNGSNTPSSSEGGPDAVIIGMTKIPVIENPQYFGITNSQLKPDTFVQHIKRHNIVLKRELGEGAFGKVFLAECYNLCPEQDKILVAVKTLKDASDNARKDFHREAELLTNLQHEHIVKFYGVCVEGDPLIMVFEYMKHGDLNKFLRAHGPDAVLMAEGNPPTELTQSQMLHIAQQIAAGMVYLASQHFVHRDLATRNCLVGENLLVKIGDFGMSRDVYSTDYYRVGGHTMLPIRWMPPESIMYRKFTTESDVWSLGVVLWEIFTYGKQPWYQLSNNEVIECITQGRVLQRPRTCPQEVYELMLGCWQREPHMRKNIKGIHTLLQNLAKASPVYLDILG

- BDNF activity in TrkBluciferase assay, EC50 [% or nM] [1]: 100%
- BDNF activity in TrkBluciferase assay, EC50 [nM] [1]: 3.4 nM
- relative BDNF activity in TrkB luciferase assay, EC50 [%] [1]: 100%
- BDNF activity in TrkBluciferase assay, EC50 [nM] [2]: 3 nM
B1: pre-pro-BDNF(-RGR)-T7-His6 (ligand)
chain: HSDPARRGELSVCDSISEWVTAADKKTAVDMSGGTVTVLEKVPVSKGQLKQYFYETKCNPMGYTKEGCRGIDKRHWNSQCRTTQSYVRALTMDSKKRIGWRFIRIDTSCVCTLTIKGSGMASMTGGQQMGHHHHHH
